For the experiment, the target named is recombinant mutant SOD1-G93A (His-tag) (human) (UniProt P00441). Kind of experiment: cell-based or functional assay.
Sequence of recombinant mutant SOD1-G93A (His-tag) (human) (P00441 whole entry, stated change not applied): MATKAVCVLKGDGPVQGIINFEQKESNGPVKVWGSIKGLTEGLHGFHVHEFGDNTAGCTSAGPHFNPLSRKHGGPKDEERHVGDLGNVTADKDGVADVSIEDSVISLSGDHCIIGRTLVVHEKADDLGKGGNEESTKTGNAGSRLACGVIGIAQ

On to “recombinant human FAIM-S (His-tag) (from UniProt Q9NVQ4 1-179)”, for which the filter trap density of pre-aggregated SOD1 G93A after 8 µM FAIM for 2.5 hr (fraction of buffer control) amounted to 0.5.

Source of the values: patent US20230235000A1.
